What all share (test): cell-based or functional assay
Test [1] deals with HA of H3-LA87 (A/Los Angeles/7/09 (H3N2)) virus (influenza A virus).
Test [2] concerns the target HA of A/Hong Kong/8/68 (H3N2) virus (influenza A virus).
For test [3], the target named is HA of A/Kawasaki/9/86 (H1N1) virus (influenza A virus).
For test [4], the target named is HA of A/Victoria/3/75 (H3N2) virus (influenza A virus, UniProt P03435 17-567).
Test [5] concerns the target HA of ca A/Panama/2007/99 (H3N2) virus (influenza A virus).
In test [6] the target is HA of ca A/Perth/16/09 (H3N2) virus (influenza A virus).
Test [7] has as its target HA of A/Fort Monmouth/1/47 (H1N1) virus (influenza A virus).
In test [8] the target is HA of ca A/Wuhan/359/95 (H3N2) virus (influenza A virus).
For test [9], the target named is HA of A/Victoria/361/11 (H3N2) virus (influenza A virus).
In test [10] the target is HA of A/Wisconsin/67/05 (H3N2) virus (influenza A virus).
In test [11] the target is HA of ca A/Beijing/262/95 (H1N1) virus (influenza A virus).
Test [12] has as its target HA of ca A/New Caledonia/20/99 (H1N1) virus (influenza A virus).
In test [13] the target is HA of ca A/Texas/36/91 (H1N1) virus (influenza A virus).
For another test, the target named is HA of H1-BS10 virus.
The target of test [14] is HA of ca A/Sydney/5/97 (H3N2) virus (influenza A virus).
Test [15] addresses HA of ca A/Wuhan/359/95 (H3N2) virus (influenza A virus). The source holds these as a separate data set.
The target of test [16] is HA of A/Puerto Rico/8/34 (H1N1) virus (influenza A virus, UniProt P03452 18-565).

Substitutions are numbered along the chain they refer to. Where two headings read alike, the source gives them in different places.

Sequence of HA of A/Victoria/3/75 (H3N2) virus (P03435 17-567 limits assumed): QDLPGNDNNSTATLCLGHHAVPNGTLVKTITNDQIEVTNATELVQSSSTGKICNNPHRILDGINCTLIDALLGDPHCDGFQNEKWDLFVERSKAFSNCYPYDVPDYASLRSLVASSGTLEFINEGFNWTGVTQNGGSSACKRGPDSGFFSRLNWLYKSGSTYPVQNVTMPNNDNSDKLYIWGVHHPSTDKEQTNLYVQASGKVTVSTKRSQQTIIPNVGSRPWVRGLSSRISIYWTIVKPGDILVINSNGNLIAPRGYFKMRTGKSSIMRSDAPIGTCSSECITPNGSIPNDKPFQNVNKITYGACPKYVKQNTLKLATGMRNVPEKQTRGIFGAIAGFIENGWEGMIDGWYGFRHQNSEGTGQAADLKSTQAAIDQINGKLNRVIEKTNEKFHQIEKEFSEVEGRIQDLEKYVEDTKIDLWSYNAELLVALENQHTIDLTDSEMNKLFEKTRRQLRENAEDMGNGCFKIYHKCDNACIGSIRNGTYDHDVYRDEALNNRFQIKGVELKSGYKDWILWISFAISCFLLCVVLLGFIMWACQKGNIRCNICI
Sequence of HA of A/Puerto Rico/8/34 (H1N1) virus (P03452 18-565 limits assumed): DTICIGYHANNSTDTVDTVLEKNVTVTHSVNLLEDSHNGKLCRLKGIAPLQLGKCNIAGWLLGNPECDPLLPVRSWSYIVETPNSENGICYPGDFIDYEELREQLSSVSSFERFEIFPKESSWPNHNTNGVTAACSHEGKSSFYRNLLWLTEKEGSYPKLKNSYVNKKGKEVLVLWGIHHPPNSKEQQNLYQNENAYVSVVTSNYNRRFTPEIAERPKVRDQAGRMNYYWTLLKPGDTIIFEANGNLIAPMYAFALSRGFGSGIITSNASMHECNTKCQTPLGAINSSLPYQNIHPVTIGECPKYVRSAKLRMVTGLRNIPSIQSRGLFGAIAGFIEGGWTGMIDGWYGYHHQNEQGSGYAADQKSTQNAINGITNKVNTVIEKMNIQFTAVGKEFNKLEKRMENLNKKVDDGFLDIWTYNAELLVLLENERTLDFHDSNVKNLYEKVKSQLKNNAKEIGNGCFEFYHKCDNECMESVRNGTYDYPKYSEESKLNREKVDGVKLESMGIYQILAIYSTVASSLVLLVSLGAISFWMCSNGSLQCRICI

B1: Antibody 11 (antibody, V domains shown)
VH: QVQLQQSGPGLVKPSQTLSLTCAISGDSVSSYNAVWNWIRQSPSRGLEWLGRTYYRSGWYNDYAESVKSRITINPDTSKNQFSLQLNSVTPEDTAVYYCARSGHITVFGVNVDAFDMWGQGTMVTVSS
VL: DIQMTQSPSSLSASVGDRVTITCRTSQSLSSYTHWYQQKPGKAPKLLIYAASSRLSGVPSRFSGSGSGTDFTLTISSLQPEDFATYYCQQSRTFGQGTKVEIK
Turning to B1, in [1], the “Neutralization IC50, H3-LA87” value was 0.8 µg/mL. The “Neutralization IC50, H3-HK68” value in test [2] was determined as 0.46 µg/mL. Besides, in [3], the “Neutralization IC50, H1-Kaw86” value turned out to be 0.53 µg/mL. In test [4], the “Neutralization IC50, H3-Vic75” value is 0.46 µg/mL. The “Neutralization IC50, H3-Pa99” value in test [5] came out at 2.18 µg/mL. Moreover, the “Neutralization IC50, H3-Perth09” value in test [6] was determined as 0.17 µg/mL. Also, in test [7], the “Neutralization IC50, H1-FM47” value turned out to be 0.43 µg/mL. Also, in [8], the “Neutralization IC50, H3-WH95” value was found to be 2.45 µg/mL and the “Neutralization IC50, H3-WH95-OR” value amounted to 2.26 µg/mL. Further, in [9], the “Neutralization IC50, H3-VC11” value turned out to be 0.85 µg/mL. Besides, the “Neutralization IC50, H3-Wl05” value in test [10] was 1.07 µg/mL. In test [11], the “Neutralization IC50, H1-BJ95” value was found to be 1.01 µg/mL. Besides, the “Neutralization IC50, H1-Ncal99” value in [12] was determined as 0.66 µg/mL. In addition, the “Neutralization IC50, H1-TX91” value in [13] is 0.11 µg/mL. For the same molecule, in the test with HA of H1-BS10 virus, the “Neutralization IC50, H1-BS10” value is 1.15 µg/mL. Further, the “Neutralization IC50, H3-Syd97” value in test [14] amounted to 1.53 µg/mL.

B2: Antibody 14 (antibody, V domains shown)
VH: B1 VH with Y32N, G58K, M123T
VL: B1 VL
Take B2: in [1], the “Neutralization IC50, H3-LA87” value came out at 0.83 µg/mL. Further, in test [2], the “Neutralization IC50, H3-HK68” value was 0.65 µg/mL. Moreover, the “Neutralization IC50, H1-Kaw86” value in test [3] was determined as 0.35 µg/mL. In addition, in test [4], the “Neutralization IC50, H3-Vic75” value came out at 0.44 µg/mL. In [5], the “Neutralization IC50, H3-Pa99” value was 4.36 µg/mL. The “Neutralization IC50, H3-Perth09” value in test [6] worked out at 0.47 µg/mL. Moreover, the “Neutralization IC50, H1-FM47” value in [7] came out at 0.44 µg/mL. In test [8], the “Neutralization IC50, H3-WH95” value was 2.77 µg/mL and the “Neutralization IC50, H3-WH95-OR” value stood at 3.09 µg/mL. Further, the “Neutralization IC50, H3-VC11” value in test [9] is 1.15 µg/mL. Besides, the “Neutralization IC50, H3-Wl05” value in test [10] was found to be 1.19 µg/mL. The “Neutralization IC50, H1-BJ95” value in test [11] was determined as 2.09 µg/mL. Besides, the “Neutralization IC50, H1-Ncal99” value in test [12] was 0.67 µg/mL. In addition, the “Neutralization IC50, H1-TX91” value in test [13] is 0.09 µg/mL. For the same molecule, the “Neutralization IC50, H1-BS10” value with HA of H1-BS10 virus came to 1.93 µg/mL. In test [14], the “Neutralization IC50, H3-Syd97” value is 1.82 µg/mL.

B3: Antibody 10 (antibody, V domains shown)
VH: QVQLQQSGPGLVKPSQTLSLTCAISGDSVSSNSATWNWIRQSPSRGLEWLGRTYYRSKWYNDYADFLKRRITINPDTSNNEVSLRLTSVTPDDTALYYCARGGHITVFGVNIDAFDVWGQGTMVTVSS
VL: B1 VL with V19I, T22S, S30R, T33L, A51S, S53T, R54L, L55Q, S77N, Q90L
As to B3, in [15], the “Neutralization IC50, H3-WH95” value came to 8.7 µg/mL.

B4: Antibody 3 (antibody, V domains shown)
VH: B1 VH with Q6E, Y32N, G58K, I73V, Q85H, N87K, Y97F, A100V
VL: B1 VL with T33L, R54L, L55Q
For B4, the “Neutralization IC50, H3-WH95” value in [15] turned out to be 3.96 µg/mL. The “IC50 (read off the curve)” value in [16] is around 0.6 µg/mL. Further, in test [8], the “Neutralization IC50, H3-WH95” value worked out at 5.63 µg/mL and the “Neutralization IC50, H3-WH95-OR” value amounted to 7.7 µg/mL.

B5: Antibody 15 (antibody, V domains shown)
VH: B1 VH with Y32N, G58K, M123T
VL: B1 VL with L55G
With B5, the “Neutralization IC50, H3-LA87” value in test [1] amounted to 0.83 µg/mL. Besides, the “Neutralization IC50, H3-HK68” value in [2] was 0.5 µg/mL. Moreover, in test [3], the “Neutralization IC50, H1-Kaw86” value is 0.48 µg/mL. Besides, in [4], the “Neutralization IC50, H3-Vic75” value is 0.35 µg/mL. In addition, the “Neutralization IC50, H3-Pa99” value in [5] amounted to 3.39 µg/mL. The “Neutralization IC50, H3-Perth09” value in test [6] came out at 0.5 µg/mL. Moreover, the “Neutralization IC50, H1-FM47” value in test [7] was 0.35 µg/mL. Besides, in test [8], the “Neutralization IC50, H3-WH95” value was determined as 3.32 µg/mL and the “Neutralization IC50, H3-WH95-OR” value was determined as 3.48 µg/mL. The “Neutralization IC50, H3-VC11” value in [9] worked out at 1.29 µg/mL. Also, the “Neutralization IC50, H3-Wl05” value in test [10] was 1.3 µg/mL. Further, in test [11], the “Neutralization IC50, H1-BJ95” value worked out at 1.81 µg/mL. Further, in test [12], the “Neutralization IC50, H1-Ncal99” value worked out at 0.79 µg/mL. Moreover, in test [13], the “Neutralization IC50, H1-TX91” value is 0.13 µg/mL. Moreover, in the test with HA of H1-BS10 virus, the “Neutralization IC50, H1-BS10” value turned out to be 1.89 µg/mL. Besides, in test [14], the “Neutralization IC50, H3-Syd97” value came out at 1.79 µg/mL.

B6: Antibody 13 (antibody, V domains shown)
VH: B1 VH
VL: B1 VL with T33D
Consider B6, for which the “Neutralization IC50, H3-LA87” value in [1] is 1 µg/mL. In test [2], the “Neutralization IC50, H3-HK68” value worked out at 0.44 µg/mL. The “Neutralization IC50, H1-Kaw86” value in [3] came out at 0.41 µg/mL. Besides, the “Neutralization IC50, H3-Vic75” value in test [4] came out at 0.43 µg/mL. For the same molecule, in test [5], the “Neutralization IC50, H3-Pa99” value was determined as 2.62 µg/mL. In addition, the “Neutralization IC50, H3-Perth09” value in test [6] worked out at 0.28 µg/mL. For the same molecule, the “Neutralization IC50, H1-FM47” value in [7] was 0.5 µg/mL. In test [8], the “Neutralization IC50, H3-WH95” value came out at 2.77 µg/mL and the “Neutralization IC50, H3-WH95-OR” value worked out at 3.01 µg/mL. For the same molecule, the “Neutralization IC50, H3-VC11” value in test [9] is 1.03 µg/mL. Moreover, the “Neutralization IC50, H3-Wl05” value in [10] was found to be 1.19 µg/mL. Besides, in [11], the “Neutralization IC50, H1-BJ95” value was 1.86 µg/mL. For the same molecule, the “Neutralization IC50, H1-Ncal99” value in test [12] was found to be 0.77 µg/mL. Moreover, the “Neutralization IC50, H1-TX91” value in test [13] came to 0.09 µg/mL. In addition, the “Neutralization IC50, H1-BS10” value in the test with HA of H1-BS10 virus came out at 1.23 µg/mL. For the same molecule, the “Neutralization IC50, H3-Syd97” value in test [14] came to 2.18 µg/mL.

B7: Antibody 12 (antibody, V domains shown)
VH: B1 VH
VL: B1 VL with L55G
On to B7, for which, in [16], the “IC50 (read off the curve)” value is around 0.5 µg/mL. In addition, the “Neutralization IC50, H3-LA87” value in test [1] stood at 0.82 µg/mL. For the same molecule, the “Neutralization IC50, H3-HK68” value in [2] was found to be 0.42 µg/mL. The “Neutralization IC50, H1-Kaw86” value in test [3] worked out at 0.28 µg/mL. In [4], the “Neutralization IC50, H3-Vic75” value came out at 0.32 µg/mL. In addition, the “Neutralization IC50, H3-Perth09” value in test [6] was found to be 0.25 µg/mL. For the same molecule, in test [7], the “Neutralization IC50, H1-FM47” value stood at 0.28 µg/mL. For the same molecule, in test [8], the “Neutralization IC50, H3-WH95” value stood at 2.09 µg/mL and the “Neutralization IC50, H3-WH95-OR” value is 2.34 µg/mL. Further, the “Neutralization IC50, H3-VC11” value in test [9] was 0.83 µg/mL. The “Neutralization IC50, H1-BJ95” value in [11] was 1.31 µg/mL. For the same molecule, the “Neutralization IC50, H1-Ncal99” value in [12] came to 0.61 µg/mL. In addition, the “Neutralization IC50, H1-TX91” value in test [13] was determined as 0.12 µg/mL. In addition, in the test with HA of H1-BS10 virus, the “Neutralization IC50, H1-BS10” value was 1.25 µg/mL. The “Neutralization IC50, H3-Syd97” value in [14] came out at 1.56 µg/mL.

B8: Antibody 5 (antibody, V domains shown)
VH: QVQLQQSGPGLVKPSQTLSLTCAISGDRVSSNSAVWNWIRQSPSRGLEWLGRTYYRSKWYYDYAESVKSRIVIDPDTSKNQVSLQLNSVTPEDSAIYYCARGGHITVFGLNIDAYDIWGQGAMVTVSS
VL: DIQMTQSPSSLSASVGDRVTISCRAQSLSSYLHWYQQKPGQPPKLLIYAATTLQSGVPSRFSGSGSGTDFTLTISTFQAEDVATYYCQQSRTFGQGTKVEIK
Turning to B8, the “Neutralization IC50, H3-WH95” value in test [15] was determined as 3.72 µg/mL.

B9: Antibody 6 (antibody, V domains shown)
VH: B8 VH with V107E
VL: B8 VL
On to B9, for which the “Neutralization IC50, H3-WH95” value in test [15] was 10.5 µg/mL.

B10: Antibody 8 (antibody, V domains shown)
VH: QVQLQQSGPGLVKPSQTLSLTCVISGDTVSSNRATWNWMRQSPLRGLEWLGRTYYRSKWYNDYAVSVKSRVVINPDTSKNQVSLQLNTVTPDDSGVYFCARGGHITVFGVNIDAFDIWGLGTKVTVSS
VL: DIQMTQSPSSLSASVGDRVTISCRASQRLNSYLHWYQQTPGQAPKLLIYATSTLQSGVSPRFSGSGSGTDFTLTISSLQPEDVATYYCQLSRTFGHGTKVEIK
On to B10, for which, in test [15], the “Neutralization IC50, H3-WH95” value was above 50 µg/mL.
